Measurements reported in patent US20040191883A1 (ULTIZYME INTERNATIONAL, published 2004).

Biological target: the molecule itself
Experiment: SDS-PAGE without mercaptoethanol, subunit-subunit disulfide-linked homodimer

B1: modified water-soluble PQQGDH Ser415Cys (Acinetobacter calcoaceticus) (enzyme)
chain: DVPLTPSQFAKAKSENFDKKVILSNLNKPHALLWGPDNQIWLTERATGKILRVNPESGSVKTVFQVPEIVNDADGQNGLLGFAFHPDFKNNPYIYISGTFKNPKSTDKELPNQTIIRRYTYNKSTDTLEKPVDLLAGLPSSKDHQSGRLVIGPDQKIYYTIGDQGRNQLAYLFLPNQAQHTPTQQELNGKDYHTYMGKVLRLNLDGSIPKDNPSFNGVVSHIYTLGHRNPQGLAFTPNGKLLQSEQGPNSDDEINLIVKGGNYGWPNVAGYKDDSGYAYANYSAAANKSIKDLAQNGVKVAAGVPVTKESEWTGKNFVPPLKTLYTVQDTYNYNDPTCGEMTYICWPTVAPSSAYVYKGGKKAITGWENTLLVPSLKRGVIFRIKLDPTYCTTYDDAVPMFKSNNRYRDVIASPDGNVLYVLTDTAGNVQKDDGSVTNTLENPGSLIKFTYKAK
modifications: Cys415 of each subunit joined in an inter-subunit disulfide bond
notes: also called modified enzyme Ser415Cys; Ser4l5Cys
binding result: binds
